How the values were obtained:
[1] = target: anti-CD19 T-ChARM^2 with 4-1BB/CD3ζ effector domain; assay: flow cytometry of CD19-ChARM2 T cells; gated FSC/SSC, PI-negative, CD4+; StrepTactin-APC lot 5010-1015; gate from 10^3 on the APC-A axis [Continued]
[2] = target: anti-CD19 T-ChARM^3 with 4-1BB/CD3ζ effector domain; assay: flow cytometry of CD19-ChARM3 T cells; gated FSC/SSC, PI-negative, CD4+; StrepTactin-APC lot 5010-1015; gate from 10^3 on the APC-A axis [Continued]
[3] = target: anti-CD19 T-ChARM^2 with 4-1BB/CD3ζ effector domain; assay: flow cytometry of CD19-ChARM2 T cells; gated FSC/SSC, PI-negative, CD4+; StrepTactin-APC lot 5010-1018; gate from 10^3 on the APC-A axis [Continued]
[4] = target: anti-CD19 T-ChARM^3 with 4-1BB/CD3ζ effector domain; assay: flow cytometry of CD19-ChARM3 T cells; gated FSC/SSC, PI-negative, CD4+; StrepTactin-APC lot 5010-1018; gate from 10^3 on the APC-A axis [Continued]
[5] = target: anti-CD19 CAR (short), IgG4 hinge only, 4-1BB/CD3ζ, no tag; assay: flow cytometry of CD19(Short) CAR T cells (no tag, control); gated FSC/SSC, PI-negative, CD4+; StrepTactin-APC lot 5010-1015; gate from 10^3 on the APC-A axis [Continued]
[6] = target: anti-CD19 CAR (short), IgG4 hinge only, 4-1BB/CD3ζ, no tag; assay: flow cytometry of CD19(Short) CAR T cells (no tag, control); gated FSC/SSC, PI-negative, CD4+; StrepTactin-APC lot 5010-1018; gate from 10^3 on the APC-A axis [Continued]
[7] = target: anti-CD19 T-ChARM^3 with 4-1BB/CD3ζ effector domain; assay: immunomagnetic selection on a MACS column of T-ChARM3 T cells mixed with control T cells with StrepTactin Nanobeads 3#; retained fraction stained with anti-Strep tag-FITC, flow cytometry; 30.2 before enrichment [Continued]
[8] = target: anti-CD19 T-ChARM^3 with 4-1BB/CD3ζ effector domain; assay: immunomagnetic selection on a MACS column of T-ChARM3 T cells mixed with control T cells with StrepTactin Microbeads 1#; retained fraction stained with anti-Strep tag-FITC, flow cytometry; 30.2 before enrichment [Continued]
[9] = target: anti-CD19 T-ChARM^3 with 4-1BB/CD3ζ effector domain; assay: immunomagnetic selection on a MACS column of T-ChARM3 T cells mixed with control T cells with StrepTactin Microbeads 2#; retained fraction stained with anti-Strep tag-FITC, flow cytometry; 30.2 before enrichment [Continued]
[10] = target: anti-CD19 T-ChARM^3 with 4-1BB/CD3ζ effector domain; assay: immunomagnetic selection on a MACS column of T-ChARM3 T cells mixed with control T cells with StrepTactin Microbeads 1#; effluent (not retained) stained with anti-Strep tag-FITC, flow cytometry; 30.2 before enrichment [Continued]

percent of cells in the StrepTactin-APC (APC-A) positive gate [1]: 92%
percent of cells in the StrepTactin-APC (APC-A) positive gate [2]: 94.7%
percent of cells in the StrepTactin-APC (APC-A) positive gate [3]: 93.5%
percent of cells in the StrepTactin-APC (APC-A) positive gate [4]: 96.5%
percent of cells in the StrepTactin-APC (APC-A) positive gate [5]: 18.1%
percent of cells in the StrepTactin-APC (APC-A) positive gate [6]: 24.9%
percent STII (FITC-A) positive cells in the bead-retained fraction (Enrichment) [7]: 80.5%
percent STII (FITC-A) positive cells in the bead-retained fraction (Enrichment) [8]: 77.7%
percent STII (FITC-A) positive cells in the bead-retained fraction (Enrichment) [9]: 87%
percent STII (FITC-A) positive cells in the column effluent [10]: 9.91%
Substance: Strep-Tactin
